Measured values taken from article PMC8980801 (2022).
One block for each molecule: values may come before it.

Legend:
[1] = molecular target: FLAG-Fzd4-3C-sGFP1–10-PDZ (mouse | not stated) (UniProt Q61088); test: SEC; FLAG-Fzd4-sGFP1–10 and FLAG-Fzd4-sGFP11 coexpressed in Sf9, solubilised in DDM, M1 anti-FLAG eluate on Superose 6 to separate dimers from monomers; total protein compared with GFP fluorescence
[2] = molecular target: T1, Fzd4–LRP6 heterodimer in biotinylated nanodiscs, prebound to Norrin (mouse | human | , UniProt Q61088 42-537; O75581 20-1439; Q00604 33-133); test: BLI
[3] = molecular target: T1, Fzd4–LRP6 heterodimer in biotinylated …; test: BLI; remark: listed apart in the source
[4] = molecular target: T2, Fzd4–LRP6 heterodimer in biotinylated nanodiscs (mouse | human, UniProt Q61088 42-537; O75581 20-1439); test: BLI; without Norrin
T2 chain 1: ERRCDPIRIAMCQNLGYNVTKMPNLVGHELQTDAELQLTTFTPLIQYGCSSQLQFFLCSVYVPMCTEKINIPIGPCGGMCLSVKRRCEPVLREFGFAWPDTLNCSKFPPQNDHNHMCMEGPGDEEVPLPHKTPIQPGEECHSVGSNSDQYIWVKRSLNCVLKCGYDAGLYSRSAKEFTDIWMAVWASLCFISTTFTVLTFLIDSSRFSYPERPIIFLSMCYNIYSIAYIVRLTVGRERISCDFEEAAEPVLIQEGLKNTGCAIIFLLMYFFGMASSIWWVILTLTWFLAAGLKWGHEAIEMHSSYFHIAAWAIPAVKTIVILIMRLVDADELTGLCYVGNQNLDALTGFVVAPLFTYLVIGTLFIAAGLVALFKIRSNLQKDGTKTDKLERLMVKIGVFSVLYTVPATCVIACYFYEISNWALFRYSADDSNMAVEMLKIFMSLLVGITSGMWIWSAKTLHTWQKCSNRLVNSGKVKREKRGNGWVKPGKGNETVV
T2 chain 2: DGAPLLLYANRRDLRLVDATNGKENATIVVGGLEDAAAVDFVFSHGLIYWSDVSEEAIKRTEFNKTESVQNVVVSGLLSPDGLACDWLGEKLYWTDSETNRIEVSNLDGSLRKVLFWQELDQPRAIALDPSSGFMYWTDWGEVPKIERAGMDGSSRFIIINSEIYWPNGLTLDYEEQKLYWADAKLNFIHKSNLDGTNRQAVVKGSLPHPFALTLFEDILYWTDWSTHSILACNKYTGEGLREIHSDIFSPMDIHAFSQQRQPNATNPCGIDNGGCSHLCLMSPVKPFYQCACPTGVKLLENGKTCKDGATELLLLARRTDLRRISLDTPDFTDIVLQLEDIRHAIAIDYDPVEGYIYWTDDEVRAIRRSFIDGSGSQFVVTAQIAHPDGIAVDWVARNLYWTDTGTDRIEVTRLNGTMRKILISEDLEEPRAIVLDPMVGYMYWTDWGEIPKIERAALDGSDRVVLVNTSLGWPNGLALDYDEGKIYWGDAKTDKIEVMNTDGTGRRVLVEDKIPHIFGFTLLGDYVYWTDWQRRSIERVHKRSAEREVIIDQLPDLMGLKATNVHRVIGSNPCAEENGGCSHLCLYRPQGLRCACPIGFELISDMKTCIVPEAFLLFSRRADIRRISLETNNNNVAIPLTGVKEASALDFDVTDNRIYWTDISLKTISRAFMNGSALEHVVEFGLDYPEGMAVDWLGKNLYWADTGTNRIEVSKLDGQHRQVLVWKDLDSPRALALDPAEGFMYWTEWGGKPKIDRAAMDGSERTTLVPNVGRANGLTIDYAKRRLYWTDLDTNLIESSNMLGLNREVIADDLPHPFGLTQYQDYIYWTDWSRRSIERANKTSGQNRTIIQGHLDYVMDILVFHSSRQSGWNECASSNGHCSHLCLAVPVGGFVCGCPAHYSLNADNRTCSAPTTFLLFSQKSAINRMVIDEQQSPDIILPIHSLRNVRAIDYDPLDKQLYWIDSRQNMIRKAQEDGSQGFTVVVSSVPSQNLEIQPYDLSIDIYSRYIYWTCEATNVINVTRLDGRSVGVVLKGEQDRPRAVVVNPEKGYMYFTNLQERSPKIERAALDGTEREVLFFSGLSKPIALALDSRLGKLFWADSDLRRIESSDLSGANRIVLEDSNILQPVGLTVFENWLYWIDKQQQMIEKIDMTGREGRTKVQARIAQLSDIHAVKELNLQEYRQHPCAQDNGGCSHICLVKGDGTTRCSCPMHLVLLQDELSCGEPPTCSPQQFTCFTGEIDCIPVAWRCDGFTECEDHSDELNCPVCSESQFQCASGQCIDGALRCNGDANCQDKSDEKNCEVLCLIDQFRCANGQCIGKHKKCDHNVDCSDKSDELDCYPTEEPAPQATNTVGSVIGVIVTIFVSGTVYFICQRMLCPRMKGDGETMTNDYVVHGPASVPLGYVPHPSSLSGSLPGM

[5] = molecular target: T2, Fzd4–LRP6 heterodimer in biotinylated …; test: BLI; kinetic, without Norrin
[6] = molecular target: Fzd4–LRP6 heterodimer in biotinylated nanodiscs (mouse | human) (UniProt Q61088); test: BLI; nanodiscs with 5% PIP2 on SMAP biosensors, 0.01 to 32 μM DEP, empty nanodiscs subtracted, 25 °C, 20 mM Hepes pH 7.4, 150 mM NaCl, 1 mM EDTA, 1 mg/ml BSA; steady state
[7] = molecular target: Fzd4–LRP6 heterodimer in biotinylated nanodiscs, prebound to Norrin (mouse | human | not stated) (UniProt Q61088); test: as above
[8] = molecular target: T3, Fzd4 homodimer in biotinylated nanodiscs (mouse, UniProt Q61088 42-537); test: BLI
T3 chain: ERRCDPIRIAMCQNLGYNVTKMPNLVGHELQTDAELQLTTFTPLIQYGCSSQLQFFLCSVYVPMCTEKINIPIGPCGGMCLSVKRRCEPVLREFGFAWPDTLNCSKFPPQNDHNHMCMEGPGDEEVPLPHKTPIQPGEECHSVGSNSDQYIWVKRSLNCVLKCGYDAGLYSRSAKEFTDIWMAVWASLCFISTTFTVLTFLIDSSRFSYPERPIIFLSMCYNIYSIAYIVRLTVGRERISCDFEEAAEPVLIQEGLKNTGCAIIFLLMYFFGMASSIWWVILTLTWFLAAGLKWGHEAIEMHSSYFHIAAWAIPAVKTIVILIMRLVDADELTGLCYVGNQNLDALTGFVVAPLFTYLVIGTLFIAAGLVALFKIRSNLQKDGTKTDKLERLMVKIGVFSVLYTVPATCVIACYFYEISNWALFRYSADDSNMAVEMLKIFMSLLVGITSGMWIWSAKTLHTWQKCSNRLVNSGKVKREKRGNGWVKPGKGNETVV

[9] = molecular target: T3, Fzd4 homodimer in biotinylated nanodiscs; test: BLI; biotinylated nanodiscs on streptavidin biosensors, 0-10 nM MBP–Norrin, 3 h association, 25 °C, 20 mM Hepes pH 7.4, 150 mM NaCl, 1 mM EDTA, 1 mg/ml BSA; steady state
[10] = molecular target: T2, Fzd4–LRP6 heterodimer in biotinylated …; test: BLI
[11] = molecular target: T4, LRP6 monomer in biotinylated nanodiscs (human, UniProt O75581 20-1439); test: BLI
T4 chain: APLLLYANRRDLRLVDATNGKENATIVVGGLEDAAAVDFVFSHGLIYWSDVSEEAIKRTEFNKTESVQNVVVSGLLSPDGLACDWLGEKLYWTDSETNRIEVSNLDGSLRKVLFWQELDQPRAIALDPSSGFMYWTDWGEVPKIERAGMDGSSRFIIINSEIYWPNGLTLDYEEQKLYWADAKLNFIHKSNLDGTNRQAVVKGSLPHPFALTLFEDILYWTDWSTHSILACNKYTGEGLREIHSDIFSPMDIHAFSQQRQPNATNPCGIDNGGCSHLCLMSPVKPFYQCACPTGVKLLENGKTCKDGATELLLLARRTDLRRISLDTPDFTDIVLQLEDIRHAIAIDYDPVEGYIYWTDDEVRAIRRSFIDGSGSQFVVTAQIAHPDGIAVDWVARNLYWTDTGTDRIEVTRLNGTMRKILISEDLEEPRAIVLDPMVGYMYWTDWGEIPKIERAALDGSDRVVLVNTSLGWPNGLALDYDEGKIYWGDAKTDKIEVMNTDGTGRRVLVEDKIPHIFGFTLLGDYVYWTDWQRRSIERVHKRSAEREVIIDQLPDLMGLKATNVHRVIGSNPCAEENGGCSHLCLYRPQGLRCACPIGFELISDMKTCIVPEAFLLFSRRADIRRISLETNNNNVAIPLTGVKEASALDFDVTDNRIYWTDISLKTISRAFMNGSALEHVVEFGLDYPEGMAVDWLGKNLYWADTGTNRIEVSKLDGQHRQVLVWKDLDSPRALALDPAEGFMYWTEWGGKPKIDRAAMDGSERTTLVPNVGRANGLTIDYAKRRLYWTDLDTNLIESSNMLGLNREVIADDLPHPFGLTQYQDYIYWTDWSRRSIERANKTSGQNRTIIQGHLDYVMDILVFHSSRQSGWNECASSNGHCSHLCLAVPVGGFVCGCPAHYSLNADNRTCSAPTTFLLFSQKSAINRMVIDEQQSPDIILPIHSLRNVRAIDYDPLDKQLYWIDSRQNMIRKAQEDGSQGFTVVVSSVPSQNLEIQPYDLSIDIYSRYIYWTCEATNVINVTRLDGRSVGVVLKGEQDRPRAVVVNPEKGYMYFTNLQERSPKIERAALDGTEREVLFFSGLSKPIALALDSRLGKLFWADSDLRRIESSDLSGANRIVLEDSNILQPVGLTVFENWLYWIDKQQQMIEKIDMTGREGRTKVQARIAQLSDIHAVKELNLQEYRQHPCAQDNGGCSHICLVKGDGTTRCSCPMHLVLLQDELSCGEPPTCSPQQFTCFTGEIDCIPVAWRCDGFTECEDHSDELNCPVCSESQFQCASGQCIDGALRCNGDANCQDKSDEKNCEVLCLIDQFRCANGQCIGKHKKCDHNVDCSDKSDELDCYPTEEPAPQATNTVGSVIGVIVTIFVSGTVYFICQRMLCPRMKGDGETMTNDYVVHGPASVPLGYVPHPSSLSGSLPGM

[12] = molecular target: T4, LRP6 monomer in biotinylated nanodiscs; test: BLI; kinetic
[13] = molecular target: Fzd4–LRP6 heterodimer in biotinylated nanodiscs (mouse | human) (UniProt Q61088); test: BLI; biotinylated nanodiscs on streptavidin biosensors, 0-100 nM DKK1, empty discs subtracted, 25 °C, 20 mM Hepes pH 7.4, 150 mM NaCl, 1 mM EDTA, 1 mg/ml BSA; steady state

B1: Dishevelled-2 (Dvl2) DEP domain (domain or fragment)
chain: GLSVHMDMASVTKAMAAPESGLEVRDRMWLKITIPNAFLGSDVVDWLYHHVEGFPERREARKYASGLLKAGLIRHTVNKITFSEQCYYVFGDLSG
koff [2]: 0.013 s⁻¹ | Kd [3]: 420 nM | koff [4]: 0.0095 s⁻¹ | Kd [5]: 260 nM | Kd [6]: 220 nM | Kd [7]: 198 nM

B3: Dikkopf1 (DKK1) (ligand)
chain: TLNSVLNSNAIKNLPPPLGGAAGHPGSAVSAAPGILYPGGNKYQTIDNYQPYPCAEDEECGTDEYCASPTRGGDAGVQICLACRKRRKRCMRHAMCCPGNYCKNGICVSSDQNHFRGEIEETITESFGNDHSTLDGYSRRTTLSSKMYHTKGQEGSVCLRSSDCASGLCCARHFWSKICKPVLKEGQVCTKHRRKGSHGLEIFQRCYCGEGLSCRIQKDHHQASNSSRLHTCQRH
koff [10]: 0.0057 s⁻¹ | koff [11]: 0.012 s⁻¹ | Kd [12]: 16.7 nM | Kd [13]: 5.6 nM

The remaining lines, values ahead:

percent of the expressed protein GFP dimerized [1]: 50%
Molecule: FLAG-Fzd4-3C-sGFP11-PDZ (Sf9) (from UniProt Q61088 42-537) (receptor)

koff [8]: 0.00034 s⁻¹ | Kd [9]: 0.46 nM
B2: MBP–Norrin (ligand)
chain: DSDPRRCMRHHYVDSISHPLYKCSSKMVLLARCEGHCSQASRSEPLVSFSTVLKQPFRSSCHCCRPQTSKLKALRLRCSGGMRLTATYRYILSCHCEECNS
